Test results from the supplement of paper PMC10567573.

B1: KCNA4 (parent)
chain: YQSGGRLKRPVNVPFDIFTEEVKF
B2: TRIM14 (parent)
chain: REQADSCREQLDIMNDLSNRVWSI

Variants of: B1
Experiment: protein stability index of a GFP-peptide fusion (GPS, HEK-293T) (PSI 1-6); higher = more stable
Settings: c terminus: a fixed tail appended
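Further: lentivirally expressed fusions sorted by FACS into six bins by GFP to DsRed ratio, PSI derived from sequencing read proportions per bin multiplied by bin number.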

Protein stability index of substitutions, site by site:
K23: Y 1.52; R 1.96
F24: A 1.78
L7: R 1.7
V13: F 1.52; H 1.91; R 2.25; N 1.2; M 1.61
F15: N 1.88; L 2.15
V22: Y 2.25; K 1.59
V11: P 1.82; K 1.39; I 2.3
F18: S 2.43; R 1.93; P 2.44; T 2.26
G5: A 2.32
T19: C 1.46; R 1.2; E 1.92
R9: S 2.1; L 2.11; V 1.69
R6: M 1.47
K8: E 1.98; P 1.7
E20: Q 1.44; G 1.57
Q2: F 2.19; L 1.64
S3: C 1.69; I 1.63; N 1.98
E21: S 1.24; T 1.81; I 2.24; A 1.89
P14: S 1.9; Y 2.7; L 1.91; K 1.71
N12: F 2.5; L 2.43; H 1.91
Y1: G 3.48; N 3.04
P10: G 1.53; Y 1.93; N 1.94; T 1.79

Variants of: B2
Experiment: as above
Settings: c terminus: a fixed tail appended

Protein stability index of substitutions, site by site:
Q10: I 2.63; S 1.87; P 2; M 1.81; W 1.98; Y 2; G 2.18; C 2.24; E 2.21; A 1.74; R 2.38; D 2.74; V 1.57; T 2.39; H 2.03; N 2.24; K 2.16; F 2.18
M14: R 2.03; W 1.78; E 2.81; S 2.81; L 1.99; F 1.76; Q 2.79; C 2.36; H 2.45; I 2.2; V 2.26; P 2.93; D 3.01; N 2.98; T 2.5; A 2.07; Y 1.72; K 2.33; G 2.26
I13: N 2.92; M 2.63; W 1.76; V 2.02; L 1.72; E 3.46; T 2.74; K 2.19; F 1.9; Y 2.04; P 2.87; R 2.43; S 2.51; H 2.88; D 3.37; C 2.93; Q 2.8; A 2.45; G 2.69
R8: K 2.29; A 2.47; F 1.6; W 2.53; G 2.68; C 2.3; V 1.8; P 3.02; D 3.4; I 1.79; S 2.41; Y 1.54; M 2.17; N 2.51; H 2.61; L 1.89; T 2.44; E 3.19; Q 2.64
E9: M 2.66; I 2.44; Q 1.53; P 2.3; Y 3.54; D 2.77; G 1.38; T 1.95; H 1.48; R 1.85; F 2.81; S 2.6; A 2.03; K 1.66; L 2.75; C 1.84; W 3.53; N 2.05
L11: G 2.62; H 2.24; A 2.1; T 3.1; F 1.87; R 3.11; C 2.17; V 2.19; P 2.53; Y 1.73; W 1.46; D 3.08; M 2.13; K 2.38; E 3.9; S 3.03; I 2.53; Q 3.17; N 2.36
D12: I 2.24; K 1.92; P 2.31; V 1.9; F 2.71; C 1.84; A 2.05; E 2.31; W 2.21; N 1.6; Q 1.59; R 2.06; Y 1.96; M 1.43; G 1.77; H 2.05; S 2.21; T 2.53
D5: T 1.99; K 3.1; E 2.15; P 2.03; N 2.88; Y 1.2; S 1.6; G 1.55; I 2.84; H 2.23; C 1.59; L 3.46; M 2.1; V 2.09; F 1.55; R 3.62; W 2.21; A 1.95; Q 2.14
N15: E 2.76; P 2.18; Q 1.89; I 2.33; K 2.44; S 1.94; G 2.12; A 2.25; L 2.91; C 2.53; V 2.14; D 2.69; R 2.17; H 2.54; F 2.39; M 2.58; T 2.36
Q3: V 1.24; T 2.11; M 1.75; W 1.88; D 2.8; A 2.48; Y 2.23; P 2.15; N 2.13; G 1.82; S 1.77; E 3.01; R 2.42; F 1.82; C 2.08; H 1.87; I 2.04; L 1.68; K 1.59
S6: Q 2.21; A 2.45; D 3.4; P 2.35; K 1.78; I 2.35; L 1.93; N 2.68; F 1.91; H 2.41; Y 2.06; W 2; T 1.6; C 2.01; G 2.42; E 2.77; R 1.86; M 1.93; V 1.85
E2: L 1.25; Q 1.63; S 1.28; Y 2.83; P 2.33; W 1.91; V 1.98; G 1.85; I 1.75; T 2.13; D 2.45; N 2.46; M 2.56; H 1.53; C 1.95; K 1.83; F 2.92; A 1.93; R 1.66
A4: Y 2.21; V 2.36; L 2.57; C 1.81; S 2.27; F 1.59; M 3.03; E 2.52; T 2.93; H 2; K 2.52; P 1.76; N 2.66; I 2.29; G 2.59; D 2.5; W 2.34; R 2.31; Q 2.25
C7: G 3.05; Y 2.2; D 3.5; V 2.76; W 2.23; H 3.02; P 2.74; A 2.86; E 3.96; R 3.42; N 3.52; Q 4.24; T 3.04; I 2.12; S 3.21; L 2.27; F 2.21; K 3; M 2.52
R1: N 2.56; L 2.32; Q 2.58; E 3.17; A 2.81; K 1.72; S 3.43; T 2.75; M 2.19; F 1.88; D 2.64; C 2.15; H 2.29; V 2.96; P 2.48; Y 2.11; I 2.63; W 2.82; G 1.86
